{"source": "paper PMC5176175", "about": "“Bg10: A Novel Metagenomics Alcohol-Tolerant and Glucose-Stimulated GH1 ß-Glucosidase Suitable for Lactose-Free Milk Preparation” (PLoS ONE, 2016)", "substrate": "O=[N+]([O-])c1ccc(O[C@@H]2O[C@H](CO)[C@@H](O)[C@H](O)[C@H]2O)cc1", "test": "purified protein", "type": "biochemical, uncultured bacterium", "conditions": "pH 7.0, 37 °C, sodium phosphate buffer, 0.1-10 mM substrate"}
{"protein": "Bg10 (uncultured bacterium) (protein, ORF10 in pET28a (EcoRI/HindIII), E. coli BL21(DE3), Ni-NTA and size exclusion) MTAVRSESAELSQSPASYRFPPGFVWGAATAAYQIEGAAAEDGRTPSIWDTFSHTPGRVLNGDTGDIAADHYHRFRDDVALMSDLNLGAYRFSVSWSRVQPTGRGPAVQRGLDFYRQLVDELLEKGITPVATLYHWDLPQDLEDVGGWTVRDTPERFAEYTEIVAAALGDRVPYWTTLNEPWCSAYLGYGSGVHAPGRTDPEAALKAVHHLNLAHGRGIGVLRSLLPSTARTSITLNLHQIRPLSTSPADLDAARRIDAVGNRVWLGPILDGAYPQDVLADTGHLVDWDRLVRDGDLEEISRPIDLLGINYYTPTLVSDGRAHADGPAMPRNDGHGASAHSPWPGSEHVAFHLAPGETTAMRWAVDASGLYDLLMRIHREHPGLPMMVTENGAAYDDYISPEGAINDPDRIAYLRGHLSAVHRALADGADVRGYFLWSLLDNFEWAYGYSKRFGAVYVDFGTQRRIPKQSAHWYAAVARDNVLPDGPEEDGTS", "values": [{"measurement": "Km", "value": "490 ± 120", "unit": "µM"}, {"measurement": "kcat", "value": "2.918 ± 0.115", "unit": "s⁻¹"}]}
